Source: the supplement of paper PMC7877785
± gives the uncertainty stated by the source.

Experiment: self-splicing fitness, log relative to wild type (ln ratio); higher = more splicing; Tetrahymena group I intron in knt gene, E. coli kanamycin selection, DiMSum; sequences stand for … in CUCUCU…GGAGGGAAAAGUUAUCAGGCAUGCACCUGGUAGCUAGUCUUUAAACCAAUAGAUUGCAUCGGUUUAAAAGGCAAGACCGUCAAAUUGCGGGAAAGGGGUCAACAGCCGUUCAGUACCAAGUCUCAGGGGAAACUUUGAGAUGGCCUUGCAAAGGGUAUGGUAAUAAGCUGACGGACAUGGUCCUAACCACGCAGCCAAGUCCUAAGUCAACAGAUCUUCUGUUGAUAUGGAUGCAGUUCACAGACUAAAUGUCGGUCGGGGAAGAUGUAUUCUUCUCAUAAGAUAUAGUCGGACCUCUCCUUAAUGGGAGCUAGCGGAUGAAGUGAUGCAACACUGGAGCCGCUGGGAACUAAUUUGUAUGCGAAAGUAUAUUGAUUAGUUUUGGAGUACUCGUGGUCG
Summary of the method: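 A randomised library covering all eight P1ex-region intron nucleotides was built with the intron in the knt kanamycin-resistance gene on pET-22b(+) and held in E. coli BL21(DE3). Cells were grown overnight at 37°C or 30°C on LB agar, with or without 25 μg/mL kanamycin, plus 100 μg/mL carbenicillin, 50 μM IPTG and 0.2% rhamnose, and pooled colonies were amplicon-sequenced on an Illumina HiSeq 2500. DiMSum fitness is the error-weighted combination of wild-type-normalised replicate fold changes, kanamycin versus none.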

Sequence | self-splicing fitness (ln) (30 °C) | self-splicing fitness (ln) (37 °C)
GUAGAGCAAUAUUACGAGUG | -1.59 ± 0.18 | -2.1 ± 0.21
GUAGAGCAAUAUUACGAUAU | -0.731 ± 0.088 | 0.237 ± 0.12
GUAGAGCAAUAUUACGCAUU | -2.45 ± 0.18 | -0.619 ± 0.25
GUAGAGCAAUAUUACGCGUG | -1.18 ± 0.11 | -0.777 ± 0.18
GUAGAGCAAUAUUACGCUAC | -2.54 ± 0.25 | -2.15 ± 0.34
GUAGAGCAAUAUUACGCUUU | -2.36 ± 0.19 | -2 ± 0.23
GUAGAGCAAUAUUACGGAGA | -2.58 ± 0.3 | 
GUAGAGCAAUAUUACGGAUA |  | -0.969 ± 0.41
GUAGAGCAAUAUUACGGCCG | -0.867 ± 0.16 | 0.266 ± 0.21
GUAGAGCAAUAUUACGGCGA | -1.87 ± 0.13 | -0.23 ± 0.16
GUAGAGCAAUAUUACGGGCU | -2.37 ± 0.3 | -1.89 ± 0.41
GUAGAGCAAUAUUACGGUCG | -2.63 ± 0.19 | -1.8 ± 0.19
GUAGAGCAAUAUUACGGUGA | -2.14 ± 0.13 | -1.09 ± 0.2
GUAGAGCAAUAUUACGUAAA | -4.18 ± 0.36 | -1.4 ± 0.27
GUAGAGCAAUAUUACGUCAU | -1.65 ± 0.1 | -1.36 ± 0.11
GUAGAGCAAUAUUACGUCGU | -0.814 ± 0.084 | -0.0553 ± 0.11
GUAGAGCAAUAUUACGUGAC | -2.42 ± 0.16 | -1.31 ± 0.19
GUAGAGCAAUAUUACGUGCG | -1.13 ± 0.081 | 0.0284 ± 0.12
GUAGAGCAAUAUUACGUGGA |  | -3.25 ± 0.3
GUAGAGCAAUAUUACGUGUC | -1.68 ± 0.094 | -0.37 ± 0.13
GUAUAGCAAUAUUACGAAUU | -3.2 ± 0.22 | -1.13 ± 0.18
GUAUAGCAAUAUUACGACAC | 0.143 ± 0.091 | 0.241 ± 0.12
GUAUAGCAAUAUUACGACAU | -0.233 ± 0.014 | 0.0814 ± 0.033
GUAUAGCAAUAUUACGCGAA | -2.01 ± 0.36 | -0.808 ± 0.23
GUAUAGCAAUAUUACGCGAC | -2.49 ± 0.3 | 

Sequence | self-splicing fitness (ln) (30 °C) | self-splicing fitness (ln) (37 °C)
GUAUAGCAAUAUUACGCGAU | -2.03 ± 0.24 | -1.73 ± 0.26
GUAUAGCAAUAUUACGCGCG | -1.55 ± 0.14 | -0.678 ± 0.15
GUAUAGCAAUAUUACGCGUU | -1.21 ± 0.11 | -1.33 ± 0.17
GUAUAGCAAUAUUACGCUAA | -2.52 ± 0.2 | -1.57 ± 0.16
GUAUAGCAAUAUUACGGACA | -2.7 ± 0.27 | -1.1 ± 0.15
GUAUAGCAAUAUUACGGACU | -1.83 ± 0.16 | -1.27 ± 0.3
GUAUAGCAAUAUUACGGAUA | -1.43 ± 0.27 | -1.55 ± 0.28
GUAUAGCAAUAUUACGGCGA | -1.21 ± 0.097 | -0.087 ± 0.1
GUAUAGCAAUAUUACGGCUC | 0.0185 ± 0.15 | 0.629 ± 0.15
GUAUAGCAAUAUUACGGCUU | -0.746 ± 0.13 | 1.21 ± 0.2
GUAUAGCAAUAUUACGGUCG | -2.06 ± 0.15 | 0.0791 ± 0.15
GUAUAGCAAUAUUACGUCCA | -1.58 ± 0.26 | -0.506 ± 0.23
GUAUAGCAAUAUUACGUCCC | -1.75 ± 0.12 | -0.594 ± 0.16
GUAUAGCAAUAUUACGUCUC | -1.21 ± 0.15 | -0.282 ± 0.15
GUAUAGCAAUAUUACGUUAU | -3.09 ± 0.36 | -1.99 ± 0.21
GUCAAGCAAUAUUACGAGUC | -3.75 ± 0.2 | -2.87 ± 0.26
GUCAAGCAAUAUUACGCAGA | -3.23 ± 0.24 | -2.79 ± 0.3
GUCAAGCAAUAUUACGCAUU | -1.21 ± 0.089 | -1.02 ± 0.13
GUCAAGCAAUAUUACGCGCA | -0.483 ± 0.097 | -0.0303 ± 0.11
GUCAAGCAAUAUUACGCUCA | -1.42 ± 0.11 | -0.0833 ± 0.13
GUCAAGCAAUAUUACGGACG | -3.64 ± 0.27 | -2.01 ± 0.13
GUCAAGCAAUAUUACGGAGG |  | -2.5 ± 0.25
GUCAAGCAAUAUUACGGAGU | -2.1 ± 0.12 | -0.536 ± 0.12
GUCAAGCAAUAUUACGGAUU | -2.73 ± 0.12 | -1.12 ± 0.12
GUCAAGCAAUAUUACGGCCU | -3.17 ± 0.22 | -1.34 ± 0.21

Sequence | self-splicing fitness (ln) (30 °C) | self-splicing fitness (ln) (37 °C)
GUCAAGCAAUAUUACGGGAA | -3.1 ± 0.19 | -0.398 ± 0.12
GUCAAGCAAUAUUACGGGAC | -2.81 ± 0.5 | 
GUCAAGCAAUAUUACGGUCC | -2.23 ± 0.27 | -1.09 ± 0.25
GUCAAGCAAUAUUACGGUUG | -5.24 ± 0.39 | -3.24 ± 0.21
GUCAAGCAAUAUUACGUACU | -1.98 ± 0.13 | -0.175 ± 0.12
GUCAAGCAAUAUUACGUCAA | -2.48 ± 0.1 | -1.87 ± 0.11
GUCAAGCAAUAUUACGUCUU | -2.96 ± 0.071 | -1.58 ± 0.066
GUCAAGCAAUAUUACGUUCA | -1.13 ± 0.1 | -0.987 ± 0.16
GUCAAGCAAUAUUACGUUGC | -5.11 ± 0.34 | -2.28 ± 0.21
GUCAAGCAAUAUUACGUUUC | -2.79 ± 0.13 | -2.39 ± 0.16
GUCCAGCAAUAUUACGACGA | -2.69 ± 0.12 | -0.712 ± 0.091
GUCCAGCAAUAUUACGACGC | -0.776 ± 0.094 | 0.435 ± 0.12
GUCCAGCAAUAUUACGACUU | -1.65 ± 0.078 | -0.203 ± 0.085
GUCCAGCAAUAUUACGAGUG | -2.52 ± 0.11 | -1.59 ± 0.1
GUCCAGCAAUAUUACGAUAA | -1.3 ± 0.087 | -0.506 ± 0.11
GUCCAGCAAUAUUACGAUGC | -0.013 ± 0.081 | 0.389 ± 0.1
GUCCAGCAAUAUUACGCAUC | -0.179 ± 0.089 | 0.142 ± 0.12
GUCCAGCAAUAUUACGCAUG | -2.14 ± 0.079 | -1.66 ± 0.082
GUCCAGCAAUAUUACGCAUU | -0.492 ± 0.053 | 0.587 ± 0.073
GUCCAGCAAUAUUACGCCCA | 0.224 ± 0.26 | -0.451 ± 0.21
GUCCAGCAAUAUUACGCCGC | -4.18 ± 0.33 | -2.58 ± 0.27
GUCCAGCAAUAUUACGCCUG | -2.5 ± 0.2 | -0.12 ± 0.21
GUCCAGCAAUAUUACGCGCU | -2.67 ± 0.25 | -2.51 ± 0.31
GUCCAGCAAUAUUACGGACG | -2.99 ± 0.26 | -0.833 ± 0.18
GUCCAGCAAUAUUACGGACU | -3.74 ± 0.29 | -3.05 ± 0.4

Sequence | self-splicing fitness (ln) (30 °C) | self-splicing fitness (ln) (37 °C)
GUCCAGCAAUAUUACGGCGU | -0.257 ± 0.078 | 0.0026 ± 0.099
GUCCAGCAAUAUUACGGGGC | -4.08 ± 0.27 | -1.8 ± 0.2
GUCCAGCAAUAUUACGGUGC | -0.903 ± 0.059 | -0.726 ± 0.071
GUCCAGCAAUAUUACGUAAG | -0.607 ± 0.071 | -0.277 ± 0.11
GUCCAGCAAUAUUACGUAAU | -0.156 ± 0.07 | 0.76 ± 0.081
GUCCAGCAAUAUUACGUACC | -1.08 ± 0.15 | -1.74 ± 0.24
GUCCAGCAAUAUUACGUAGG | -2.31 ± 0.13 | -1.84 ± 0.15
GUCCAGCAAUAUUACGUAUG | -2.76 ± 0.1 | -1.06 ± 0.11
GUCGAGCAAUAUUACGAGCU | -2 ± 0.42 | 
GUCGAGCAAUAUUACGAGUA | -2.24 ± 0.45 | -1.13 ± 0.25
GUCGAGCAAUAUUACGAUAA | -1.44 ± 0.26 | -0.0833 ± 0.2
GUCGAGCAAUAUUACGAUAG | -4.14 ± 0.47 | 
GUCGAGCAAUAUUACGAUCA | -1 ± 0.19 | -0.515 ± 0.21
GUCGAGCAAUAUUACGAUUG | -4.1 ± 0.33 | -3.26 ± 0.26
GUCGAGCAAUAUUACGCCCU |  | -0.627 ± 0.41
GUCGAGCAAUAUUACGCGCC | -2.74 ± 0.24 | -1.87 ± 0.42
GUCGAGCAAUAUUACGCUAG | -3.53 ± 0.21 | -1.93 ± 0.15
GUCGAGCAAUAUUACGCUAU | -2.01 ± 0.12 | -1.36 ± 0.12
GUCGAGCAAUAUUACGCUCG | -1.76 ± 0.37 | 
GUCGAGCAAUAUUACGCUUA | -1.12 ± 0.13 | -0.065 ± 0.12
GUCGAGCAAUAUUACGCUUG |  | -2.36 ± 0.33
GUCGAGCAAUAUUACGGAAU | -2.48 ± 0.16 | -1.12 ± 0.14
GUCGAGCAAUAUUACGGAGC | -2.93 ± 0.2 | -1.24 ± 0.15
GUCGAGCAAUAUUACGGCAG |  | -2.81 ± 0.44
